From patent US20200270586A1
Read-outs that look alike come from different tables or passages of the source. Values belong to the binder of their own block, whether it stands above or below them.

Assays:
Details in all cases: modification not given
[1] = target: LgTrip 3546 (with His tag; SEQ ID NO: 51); experiment: luminescence complementation; SmTrip9 Kd
[2] = target: LgTrip 3546 (with His tag; SEQ ID NO: 51); experiment: luminescence complementation; SmTrip9 Kd; remark: listed apart in the source
[3] = target: LgTrip 3546 (with His tag; SEQ ID NO: 51); experiment: luminescence complementation
[4] = target: LgTrip 3546 (with His tag; SEQ ID NO: 51); experiment: luminescence complementation; remark: listed apart in the source
[5] = target: LgTrip 3546 (with His tag; SEQ ID NO: 51); experiment: luminescence complementation; remark: listed apart in the source
[6] = target: LgTrip 3546 (with His tag; SEQ ID NO: 51); experiment: luminescence complementation; remark: listed apart in the source
[7] = target: LgTrip 3546 (with His tag; SEQ ID NO: 51)
[8] = target: LgTrip 3546 (with His tag; SEQ ID NO: 51); experiment: luminescence complementation; SmTrip9 Kd; remark: listed apart in the source
[9] = target: LgTrip 3546 (with His tag; SEQ ID NO: 51); remark: listed apart in the source
[10] = target: LgTrip 3546 (with His tag; SEQ ID NO: 51); experiment: luminescence complementation; SmTrip9 Kd; remark: listed apart in the source
[11] = target: LgTrip 3546 (with His tag; SEQ ID NO: 51); experiment: luminescence complementation; SmTrip9 Kd; remark: listed apart in the source
[12] = target: LgTrip 3546 (with His tag; SEQ ID NO: 51); experiment: luminescence complementation; remark: listed apart in the source
[13] = target: LgTrip 3546 (with His tag; SEQ ID NO: 51); experiment: luminescence complementation; SmTrip9 Kd; remark: listed apart in the source

Chain of LgTrip 3546 (with His tag; SEQ ID NO: 51) (chain, as listed by the source): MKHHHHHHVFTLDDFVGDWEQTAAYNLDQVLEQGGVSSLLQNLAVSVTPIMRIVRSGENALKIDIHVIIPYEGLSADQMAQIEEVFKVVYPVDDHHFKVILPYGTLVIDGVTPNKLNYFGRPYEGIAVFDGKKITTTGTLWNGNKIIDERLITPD

Binder: DKLLFTVTIEKWK [758]
- Kd [1]: 190 nM
- Kd [2]: 520 nM

Binder: GKMLFRVTIESWK [622]
- Kd [3]: 7240 nM
- Kd [4]: 2880 nM

Binder: GKMLFRVTINSYK [620]
- Kd [3]: 190 nM
- Kd [5]: 120 nM

Binder: GKMLFRVTIGKWK [668]
- Kd [3]: 130 nM
- Kd [6]: 60 nM

Binder: DKMLFTVTIQKWK [745]
- Kd [3]: 160 nM
- Kd [8]: 300 nM
- Kd [1]: 200 nM

Binder: DKLLFTVTIQKYK [757]
- Kd [10]: 360 nM
- Kd [1]: 190 nM

Binder: DKLLFTVTIEKYK [759]
- Kd [13]: 330 nM
- Kd [1]: 560 nM

The remaining lines, values ahead:

- Kd [7]: 520 nM
Binder: SSWKRMLFRVTINSVS [302]

- Kd [9]: 40 nM
Binder: SSKRGSMLFRVTIWSV [428]

- Kd [1]: 950 nM
- Kd [11]: 480 nM
Binder: DKLLFTVTIQKWK [756]

- Kd [3]: 60 nM
- Kd [12]: 20 nM
Binder: GKMLFRVTIQKWK [671]
